# Data from the DeepSol protein solubility set.
# Assay: soluble on expression in E. coli; label from the status in PepcDB or PDB records
row,Sequence,soluble on expression in E. coli
1,SASLIQRIARQACLTFRGSSTGSEGPAPGFPENLSLLKSLLTQVRAEDLNIAPRKALPQPLPRNLPPVTYMHIYETEGFSLGVFLLKSGTCIPLHDHPGMHGMLKVLYGTVRISCMDKLDTGAGHRRPPPEQQFEPPLQPLEREAVRPGVLRSRAEYTEASGPCVLTPHRDNLHQIDAVDGPAAFLDILAPPYDPEDGRDCHYYRVVEPIRPKEASGSACDLPREVWLLETPQADDFWCEGEPYPGPKVLP,soluble
2,SAVFADLDLRAGSDLKALRGLVETAAHLGYSVVAINHIVDFKEKKQEIEKPVAVSELFTTLPIVQGKSRPIKILTRLTIIVSDPSHCNVLRATSSRARLYDVVAVFPKTEKLFHIACTHLDVDLVCITVTEKLPFYFKRPPINVAIDRGLAFELVYSPAIKDSTMRRYTISSALNLMQICKGKNVIISSAAERPLEIRGPYDVANLGLLFGLSESDAKAAVSTNCRAALLHGETRKTAFGIISTVKKPRPSEGDEDCLPASKKAKCEG,soluble
3,SCREKTELTPDQQTLLHFIMDSYNKQRMPQEITNKILKEEFSAEENFLILTEMATNHVQVLVEFTKKLPGFQTLDHEDQIALLKGSAVEAMFLRSAEIFNKKLPSGHSDLLEERIRNSGISDEYITPMFSFYKSIGELKMTQEEYALLTAIVILSPDRQYIKDREAVEKLQEPLLDVLQKLCKIHQPENPQHFACLLGRLTELRTFNHHHAEMLMSWRVNDHKFTPLLCEIWDVQ,soluble
4,SDALSWGHGPRLFEVFLEPTCPFSVKAFFKLDDLLAQAGEDNVTVRIRLQSQPWHMFSGVIVRCILAAATLEGGKESAKAVMTAVASHREEFEFEHHAGGPNLDATPNDIIARIERYSGLALAEAFANPELEHAVKWHTKYARQNGIHVSPTFMINGLVQPGMSSGDPVSKWVSDIG,not soluble
5,SDLSWIKPGKVAWDWWNDWNLDGVDFVTGVNNPTYKAYIDFASANGIEYVILDEGWAVNLQADLMQVVKEIDLKELVDYAASKNVGIILWAGYHAFERDMENVCRHYAEMGVKGFKVDFMDRDDQEMTAFNYRAAEMCAKYKLILDLHGTHKPAG,not soluble
6,SDRAEVRNIPFKLGMYLTVGGVVNSNATRFSINVGESTDSIAMHMDHRFSYGADQNVLVLNSLVHNVGWQQEERSKKFPFTKGDHFQITITFDTHTFYIQLSNGETVEFPNRNKDAAFNLIYLAGDARLTFVRLE,soluble
7,SDRAMMNAFKEITTMADRINLPRNIVDRTNNLFKQVYEQKSLKGRANDAIASACLYIACRQEGVPRTFKEICAVSRISKKEIGRCFKLILKALETSVDLITTGDFMSRFCSNLCLPKQVQMAATHIARKAVELDLVPGRSPISVAAAAIYMASQASAEKRTQKEIGDIAGVADVTIRQSYRLIYPRAPDLFPTDFKFDTPVDKLPQL,soluble
8,SDRPLSVHLNLGQKGNRKTSCPIKINQFEGHFMKLQADSNYLLSKEYEELKDVGRNQSCDIALLPENRGKNRYNNILPYDATRVKLSNVDDDPCSDYINASYIPGNNFRREYIVTQGPLPGTKDDFWKMVWEQNVHNIVMVTQCVEKGRVKCDHYWPADQDSLYYGDLILQMLSESVLPEWTIREFKICGEEQLDAHRLIRHFHYTVWPDHGVPETTQSLIQFVRTVRDYINRSPGAGPTVVHCSAGVGRTGTFIALDRILQQLDSKDSVDIYGAVHDLRLHRVHMVQTECQYVYLHQCVRDVLRARKLRSEQ,soluble
9,SDRWEVPVNPSNVRSASSHQTVSASDRASDKVDERPATFSHFQLARCGEDYTLSMVSLAAYQAERRHRGNLIKDRSQSALPWVQVYHSETGLDYSFQIDRTTTVKVAGFNYNVPNDGETRHLYSAGTSQVNMPVITDNMSACIAVACAAENVDAGTGERRPGAKVRVFHLLPFRREDLMPEQVLASVRDYLRDIKEQGLTMRVALHGGNREGDFSVSTAEALKSLFADEGIPIEFDETCANRTSETLLGAVILNDNSTQFIKH,not soluble
10,SDVIKTQQISARTIEKVIVHPLVLLSIVDHYNRVAKDTSKRVVGVLLGSSSRGTVDVTNSYAVPFEEDDKDTSIWFLDHNYHESMFHMFKRINAKEHIVGWYSTGPKLRENDLDVHALFNGYVPNPVLVIIDVQPKELGIPTKAYYAVEEVKENATQKSQQVFVHVPTEIAAHEVEEIGVEHLLRDVKDTTISTLATEVTAKLTALKGLDARLREIRTYLDLVIEGKLPLNHEILYHLQDVFNLLPNLNVNELVKAFAVKTNDMMLVIYLSSLIRSVIALHSLINNKLLNKEHEKAEDSKPVDIPLITES,soluble
11,SEATKERVGLLDTILPPALADAGLEDCALPPESIQEAFRKAANAVKSRAASIFDHEEEDGCLADPIPETADKIIVGGDNERDTGPCLAGKGIEKLAESKQAGDLVVAGEGEEGKSCVDGLKDLDVEGIERSSEKKDQSDEDEEEEMKPILVEGFV,soluble
12,SEKLINRVGPNGESRAQAVTSDQEKRLLHQLREITRVMKEGKFIDTSPEKEAEEAPYMEDWEGYPEETYPIYDLSDGIKRRQETILVDYPDLKEPSAEEIAEQMGEIEEEGSERLSWDHLPTDPGAQKDNSVAPCDPKPESCSCCVHEEEDPAVLAENAGFSADGYSEQEEATKENLPQDFTNEGLGVSTDNAHVGGMLRKRNPQGFE,soluble
13,SEKTQETVQRILLEPYKYLLQLPGKQVRTKLSQAFNHWLKVPEDKLQIIIEVTEMLHNASLLIDDIEDNSKLRRGFPVAHSIYGIPSVINSANYVYFLGLEKVLTLDHPDAVKLFTRQLLELHQGQGLDIYWRDNYTCPTEEEYKAMVLQKTGGLFGLAVGLMQLFSDYKEDLKPLLNTLGLFFQIRDDYANLHSKEYSENKSFCEDLTEGKFSFPTIHAIWSRPESTQVQNILRQRTENIDIKKYCVHYLEDVGSFEYTRNTLKELEAKAYKQIDARGGNPELVALVKHLSKMFKEENE,soluble
14,SENLYFQSKVTVGPDPSLVYRPDVDPEVAKDKASFRNYTSGPLLDRVFTTYKLMHTHQTVDFVRSKHAQFGGFSYKKMTVMEAVDLLDGLVDESDPDVDFPNSFHAFQTAEGIRKAHPDKDWFHLVGLLHDLGKVLALFGEPQWAVVGDTFPVGCRPQASVVFCDSTFQDNPDLQDPRYSTELGMYQPHCGLDRVLMSWGHDEYMYQVMKFNKFSLPPEAFYMIRFHSFYPWHTGRDYQQLCSQQDLAMLPWVREFNKFDIYTKCPDLPDVDKLRPYYQGLIDKYCPGILSW,soluble
15,SESWRSFFKEALQGVGDMGRAYWDIMISNHQNSNRYLYARGNYDAAQRGPGGVWAAKLISRSRVYLQGLIDYYLFGNSSTVLEDSKSNEKAEEWGRSGKDPDRFRPDGLPKKY,soluble
16,SGFNHVKPTEYKPRLLHISGDKNAKVAEVPLATSSLNSGDCFLLDAGLTIYQFNGSKSSPQEKNKAAEVARAIDAERKGLPKVEVFCETDSDIPAEFWKLLGGKGAIAAKHETA,soluble
17,SGGGGGVLWDTPSPKEYKKGDTTTGVYRIMTRGLLGSYQAGAGVMVEGVFHTLWHTTKGAALMSGEGRLDPYWGSVKEDRLCYGGPWKLQHKWNGQDEVQMIVVEPGKNVKNVRTKPGVFKTPEGEIGAVTLDFPTGTSGSPIVDKNGDVIGLYGNGVIMPNGSYISAIVQGKRMDEPIPAGFEPEMLGSRSHHHHHH,soluble
18,SHRKFVVQLFAEEWGQYVDLPKGFAVSERCKVRLVPLQIQLTTLGNLTPSSTVFFCCDMQERFRPAIKYFGDIISVGQRLLQGARILGIPVIVTEQYPKGLGSTVQEIDLTGVKLVLPKTKFSMVLPEVEAALAEIPGVRSVVLFGVETHVCIQQTALELVGRGVEVHIVADATSSRSMMDRMFALERLARTGIIVTTSEAVLLQLVADKDHPKFKEIQNLIKASAPESGLLSKV,soluble
19,SHVEYSRITKFFQEQPLEGYTLFSHRSAPNGFKVAIVLSELGFHYNTIFLDFNLGEHRAPEFVSVNPNARVPALIDHGMDNLSIWESGAILLHLVNKYYKETGNPLLWSDDLADQSQINAWLFFQTSGHAPMIGQALHFRYFHSQKIASAVERYTDEVRRVYGVVEMALAERREALVMELDTENAAAYSAGTTPMSQSRFFDYPVWLVGDKLTIADLAFVPWNNVVDRIGINIKIEFPEVYKWTKHMMRRPAVIKALRGE,soluble
20,SIDKNFWQGKRVFVTGHTGFKGSWLSLWLTEMGAIVKGYALDAPTVPSLFEIVRLNDLMESHIGDIRDFEKLRSSIAEFKPEIVFHMAAQPLVRLSYEQPIKTYSTNVMGTVHLLETVKQVGNIKAVVNITSDKCYDNREWVWGYRENEPMGGYDPYSNSKGCAELVASAFRNSFFNPANYEQHGVGLASVRAGNVIGGGDWAKDRLIPDILRSFENNQQVIIRNPYSIRPWQHVLEPLSGYIVVAQRLYTEGAKFSEGWNFGPRDEDAKTVEFIVDKMVTLWGDDASWLLDGENHPHEAHYLKLDCSKANMQLGWHPRWGLTETLSRIVKWHKAWIRGEDMLICSKREISDYMSATTR,soluble
21,SKEFFAPQRAGMKLRTFSDIDKYYTEQKKQEYHKEKVRVVAMAQVARERVRVAVNEHLNQKKYATQKLIEENKETIQNSLRQVWQNRFNYLEKARERKALFLKEKSQKASERLLVQNLNNERTLLTRGLLKIDRLEKNEAVLKEKSLIVKQKLKAEKYRKNLLKEMKKVRSQEIYKRHCEEKFVMDMIAFEKACERLQDAKTKVAIVKTNLDFKVPNGLIK,soluble
22,SKNAVANSSSSEPAVSQTENASSSLEHENKARELASDAQANKTQELAPDSRQESLAPQEPFIDINRMLDSLSGDEGAVRMLLEVFIQDHAEDGSKLHKLLNEDIDNAQRAAHSLKGVSGSLGAMPLHYISGEIELLIKQGKEVPDNKLCQLRDVLQQTTLFAEKVLNSEKIREVLTD,not soluble
23,SKSINVDQISIRSLSEPANPFSFWQWIFIYLPGLKEDEKQEILTHEQTHVRQWHSIDVIISEIVNIICWMNPFAWLLKTEIRLNLEYLADHKVMESGTNKKAYQYHLLGLA,not soluble
24,SKVALITGVTGQDGSYLAEFLLEKGYEVHGIKRRASSFNTERVDHIYQDPHTCNPKFHLHYGDLSDTSNLTRILREVQPDEVYNLGAMSHVAVSFESPEYTADVDAMGTLRLLEAIRFLGLEKKTRFYQASTSELYGLVQEIPQKETTPFYPRSPYAVAKLYAYWITVNYRESYGMYACNGILFNHESPRRGETFVTRKITRAIANIAQGLESCLYLGNMDSLRDWGHAKDYVKMQWMMLQQEQPEDFVIATGVQYSVRQFVEMAAAQLGIKLRFEGTGVEEKGIVVSVTGHDAPGVKPGDVIIAVDPRYFRPAEVETLLGDPTKAHEKLGWKPEITLREMVSEMVANDLEAAKKHSLLKSHGYDVAIALES,soluble
25,SLAVDQTRYIFRGDKDALTITVTNNDKERTFGGQAWVDNIVEKDTRPTFVVTPSFFKVKPNGQQTLRIIMASDHLPKDKESVYWLNLQDIPPALEGSGIAVALRTKLKLFYRPKALLEGRKGAEEGISLQSRPDGRTMLVNTTPYIFAIGSLLDGNGKKIATDNGTTQKLLMFMPGDEVQVKGNVVKVDSLNDYGELQTWTINKKKPAAPEAAKAEKADTAEQK,soluble
26,SLDGAHKMARVWVGILNWSLKHIVGLKYRIIGAENIPDRPAVICAKHQSGWETLALQDIFPPQVYVAKRELFKIPFFGWGLKLVKTIGIDRNNRREANEQLIKQGLVRKNEGYWITIFPEGTRLAPGKRGKYKLGGARMAKMFEMDIVPVALNSGEFWPKNSFLKYPGEITVVICPTIPHASGSEAELMEKCEHLIETQQPLISGAGPFAAKMPSETAEG,soluble
